We go through eleven molecules from patent US5837499A, “DNA encoding C5A receptor antagonists having substantially no agonist activity and methods of expressing same” (priority 1995, dated 1998).

Where a SMILES comes first, the peptide text is derived from it.

Broadly, the Ki is a dissociation constant, usually derived from enzyme kinetics or from competition with a known ligand. A low value points to tighter binding.

Assay [1] has as its target T1, C5a receptor (Homo sapiens, UniProt P21730).
T1 construct: Neutrophils were purified from human peripheral blood; endogenous in cells; host or cells: neutrophils from human peripheral blood
T1 sequence (P21730 1-350): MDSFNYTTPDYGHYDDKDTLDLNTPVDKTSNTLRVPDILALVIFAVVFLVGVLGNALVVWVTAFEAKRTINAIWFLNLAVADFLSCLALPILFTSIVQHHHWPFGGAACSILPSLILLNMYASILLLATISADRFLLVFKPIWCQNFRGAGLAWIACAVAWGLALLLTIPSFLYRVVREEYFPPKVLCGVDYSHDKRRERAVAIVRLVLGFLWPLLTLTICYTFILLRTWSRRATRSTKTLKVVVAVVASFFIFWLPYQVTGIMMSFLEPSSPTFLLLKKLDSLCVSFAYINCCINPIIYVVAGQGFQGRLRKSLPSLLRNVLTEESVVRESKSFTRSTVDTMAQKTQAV
The assay is described as follows: C5a induced Ca++ rise in fura-2 loaded neutrophils (antagonist IC50 / agonist EC50). In kind it is cell-based. Conditions: for Concentration up to which tested and agonist activity not detected (calcium rise): highest concentration tested, agonist activity was not detected. The source says:
The antagonism of the instant C5a analogues may be quantified as an IC50 in the calcium rise assay disclosed in Agents and Actions 21:375-378 (1987), described in detail in Example 7.
See Hugli et al., CRC Crit. Rev. Immunol. 1:321-326 (1981) and PCT WO 92/10205. A quantitative measure of this property may also be obtained using the calcium rise assay disclosed in Seligmann et al., supra, also described in Example 7. EC50 is a measure of agonistic activity. […] Applicants have not detected agonist activity of the instant C5a analogues up to a concentration of at Least about 8.0×10^-7 M, and preferably at least about 3.0×10^-6 M in the same calcium rise assay.
Recombinant human C5a was dissolved in Hanks buffer containing 0.01% Tween-20, and all stock dilutions of C5a were made in this buffer. The acetoxymethyl ester of fura-2 (fura 2AM, Molecular Probes) was dissolved in DMSO. Neutrophils were purified from human peripheral blood by sedimentation in 6% hetastarch (HESPAN, DuPont, Waukegan, Ill.), followed by counter flow elutriation as described in Chapman-Kirkland et al., J. Immunol. Meth. 142:95-104 (1991). Purified cells (2×10^6 /ml) were mixed with 0.2 uM fura- 2AM and incubated for 30 min at 37° C. in HEPES buffered Hanks solution without calcium or magnesium. Fifteen minutes before the assay, the cell suspension was transferred to a curvette containing a stir bar and calcium was added to 1 mM. The cell suspension was incubated with stirring at 37° C. Assays were terminated within 5 h of cell purification and a standard control response was obtained periodically to insure that the cell responses were not changing over the time of the experiment. The amount of fluorescence was determined using an SLM 8000 spectrofluorometer (SLM-Aminco Instruments, Urbana, Ill.). Curvettes were placed in the fluorometer and after obtaining a baseline for 10 sec, the C5a receptor antagonists to be tested for antagonistic properties were added and any change in fluoresence excitation ratio of 340 nm/380 nm (emission of 510 nm) was measured. Forty seconds after analogue addition, a challenge dose of C5a was added to a final concentration of 100 pM and the resulting change in excitation ratio was measured.
IC50 values were used as a measure of antagonist potency. These values are defined as the concentration of C5a analogue needed to reduce the calcium rise response of the 100 pM C5a challenge dose by 50%. EC50 values were used as a measure of agonist potency. […]

The target of assay [2] is T1, C5a receptor. The assay is described as follows: Receptor binding assay: displacement of [125I]Bolton-Hunter-labelled C5a from PMNL membranes. Conditions: Table 4, [125I]BH-C5a 4.0 pM, 120 min at 4° C., Cheng-Prusoff. The method, then:
C5a and C5a receptor antagonists were tested for their affinity for the C5a receptor. […] PMNLs were resuspended in Hanks balanced salt solution, without Ca^++ and Mg^++ and which contained 10 mM HEPES; at pH 7.3, 2.5 mM MgCl2, 100 units/ml DNAse I, 0.1 mM PMISF, 10 μg/ml aprotonin and 10 μg/ml leupeptin. They were then equilibrated at 400 psi for 20 min at 4° C. in a nitrogen cavitation bomb. After evacuation into 3 volumes 0.5 M KHCO3 containing 25 mM EDTA and the protease inhibitors listed above, the gelatinous material was removed with forceps and the mixture was centrifuged at 400×g for 10 min at 4° C. The resulting supernatant was centrifuged at 50,000×g for 60 min at 4° C. The pellets from the aliquots representing 200×10^6 cells were stored at -70° C. For binding studies, these membranes were resuspended at an equivalent of 20×10^6 cells/ml in 50 mM HEPES at pH 7.3, containing 1 mM CaCl2, 5 mM MgCl2, 0.1 mM PMSF, 0.1% bacitracin and 0.5% BSA.
Nonspecific binding was determined in the presence of 10 nM unlabelled C5a. The binding reaction was initiated by the addition of the PMNL membranes and was continued for 120 min at 4° C. Bound and free radioactivity were separated by vacuum filtration through GF/C glass fiber filters (Whatman), pretreated for 90 min with 0.05% PEI (polyethyleneimine) using a Cell Harvester (Brandel, Gaithersburg, Md.). Filters were washed with 3×5 ml of ice-cold 5 mM Tris buffer at pH 7.4 and counted in a multiwell Gamma counter (Genesys). Data were analyzed using the non-linear regression analysis program, RS/1 (Bolt, Beranek and Newman, Boston) and expressed as IC50 values. The results are set forth below in Table 4 as Ki values using the Cheng-Presoff equation. See Braunwalder et al., supra
Background: Loss of bound radioactivity is the signal in a displacement assay; it reports binding, not function.

Turning to `CC[C@H](C)[C@H](N)C(=O)N[C@@H](CO)C(=O)N[C@@H](Cc1ccccc1)C(=O)N[C@@H](CCCCN)C(=O)N[C@@H](CC(=O)O)C(=O)N[C@@H](CCSC)C(=O)N[C@@H](CCC(N)=O)C(=O)N[C@@H](CC(C)C)C(=O)NCC(=O)N[C@@H](CCCNC(=N)N)C(=O)O` [Decapeptide, reference compound] (H-ISFKDMQLGR-OH), in assay [1] (result in words), the “Agonist / antagonist character” value is recorded as “significant agonist activity”.

B1: C5a(1-72,T1M,C27S,L72C) (protein, UniProt P01031 678-749, looked up, fragment T1M C27S L72C)
chain: MLQKKIEEIAAKYKHSVVKKCCYDGASVNNDETCEQRAARISLGPRCIKAFTECCVVASQLRANISHKDMQC
modifications: C5a anaphylatoxin
As to B1, in assay [1], the Concentration up to which tested and agonist activity not detected (calcium rise) is over 1500 nM. In addition, the affinity in assay [2], expressed as Ki, was 900 pM.

B2: C5a(1-71,T1M,C27S) (protein, UniProt P01031 678-748, looked up, fragment T1M C27S)
chain: MLQKKIEEIAAKYKHSVVKKCCYDGASVNNDETCEQRAARISLGPRCIKAFTECCVVASQLRANISHKDMQ
modifications: C5a anaphylatoxin
notes: comparison agonist
For B2, the inhibitory constant (Ki) in assay [2] worked out at 3000 pM.

B3: Analogue 22: dimeric form of analogue No. 8, disulfide linked through the C-terminal cysteines (protein, UniProt P01031 678-748, looked up, fragment T1M C27S Q71C)
chain: MLQKKIEEIAAKYKHSVVKKCCYDGASVNNDETCEQRAARISLGPRCIKAFTECCVVASQLRANISHKDMC
modifications: C5a anaphylatoxin disulfide-linked dimer
notes: dimeric form of analogue No. 8, disulfide linked through the C-terminal cysteines
Take B3: in assay [2], the affinity, expressed as Ki, was 40 pM.

B4: C5a(1-71,T1M,C27S,Q71H) (protein, UniProt P01031 678-748, looked up, fragment T1M C27S Q71H)
chain: MLQKKIEEIAAKYKHSVVKKCCYDGASVNNDETCEQRAARISLGPRCIKAFTECCVVASQLRANISHKDMH
modifications: C5a anaphylatoxin
notes: comparison agonist
On to B4, for which affinity in assay [2] was put at a Ki of 150 pM.

B5: C5a(1-71,T1M,C27S,Q71R) (protein, UniProt P01031 678-748, looked up, fragment T1M C27S Q71R)
chain: MLQKKIEEIAAKYKHSVVKKCCYDGASVNNDETCEQRAARISLGPRCIKAFTECCVVASQLRANISHKDMR
modifications: C5a anaphylatoxin
notes: comparison agonist
As to B5, the Ki in assay [2] stood at 350 pM.

B6: C5a(1-71,T1M,C27S,Q71D) (protein, UniProt P01031 678-748, looked up, fragment T1M C27S Q71D)
chain: MLQKKIEEIAAKYKHSVVKKCCYDGASVNNDETCEQRAARISLGPRCIKAFTECCVVASQLRANISHKDMD
modifications: C5a anaphylatoxin
notes: comparison agonist
B6 displayed a Ki in assay [2] of 8500 pM.

B7: C5a(1-71,T1M,C27S,Q71L) (protein, UniProt P01031 678-748, looked up, fragment T1M C27S Q71L)
chain: MLQKKIEEIAAKYKHSVVKKCCYDGASVNNDETCEQRAARISLGPRCIKAFTECCVVASQLRANISHKDML
modifications: C5a anaphylatoxin
notes: comparison agonist
Molecule B7 came in with a Ki in assay [2] of 35 pM.

B8: C5a(1-71,T1M,C27S,H67F,Q71C) (protein, UniProt P01031 678-748, looked up, fragment T1M C27S H67F Q71C)
chain: MLQKKIEEIAAKYKHSVVKKCCYDGASVNNDETCEQRAARISLGPRCIKAFTECCVVASQLRANISFKDMC
modifications: C5a anaphylatoxin
As for B8, the “Concentration up to which tested and agonist activity not detected (calcium rise)” value in assay [1] is over 800 nM. This molecule also had an inhibition constant (Ki) in assay [2] of 100 pM.

B9: C5a(1-71,T1M,C27S,Q71S) (protein, UniProt P01031 678-748, looked up, fragment T1M C27S Q71S)
chain: MLQKKIEEIAAKYKHSVVKKCCYDGASVNNDETCEQRAARISLGPRCIKAFTECCVVASQLRANISHKDMS
modifications: C5a anaphylatoxin
notes: comparison agonist
Molecule B9 gave a Ki in assay [2] of 7500 pM.

B10: C5a(1-70,T1M,C27S,M70C) (protein, UniProt P01031 678-747, looked up, fragment T1M C27S M70C)
chain: MLQKKIEEIAAKYKHSVVKKCCYDGASVNNDETCEQRAARISLGPRCIKAFTECCVVASQLRANISHKDC
modifications: C5a anaphylatoxin
As to B10, the Concentration up to which tested and agonist activity not detected (calcium rise) in assay [1] is over 1000 nM.
